Holding throughout (assay): BLI
The target of assay [1] is AZD8895-450.
Assay [2] has as its target Sotrovimab.
In assay [3] the target is REGN10987.
Assay [4] has as its target MW05.
The target in assay [5] is REGN10933.
In assay [6] the target is AZD8895.
Assay [7] addresses AZD8895-275.
The target of assay [8] is AZD8895-25.
AZD8895-25, sequence (heavy, as listed by the source, chain 1 of 2): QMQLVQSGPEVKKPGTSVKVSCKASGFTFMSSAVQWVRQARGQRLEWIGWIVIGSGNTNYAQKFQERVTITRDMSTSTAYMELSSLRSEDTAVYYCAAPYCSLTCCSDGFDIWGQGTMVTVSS
AZD8895-25, sequence (light, as listed by the source, chain 2 of 2): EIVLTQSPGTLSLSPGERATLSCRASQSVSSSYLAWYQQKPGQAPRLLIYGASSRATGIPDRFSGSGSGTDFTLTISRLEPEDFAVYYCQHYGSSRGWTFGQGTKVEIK

AZD8895-450, sequence (heavy, as listed by the source, chain 1 of 2): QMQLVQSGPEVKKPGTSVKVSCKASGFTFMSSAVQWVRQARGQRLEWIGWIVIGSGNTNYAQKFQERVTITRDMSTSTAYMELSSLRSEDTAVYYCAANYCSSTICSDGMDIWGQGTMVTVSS
AZD8895-275, sequence (heavy, as listed by the source, chain 1 of 2): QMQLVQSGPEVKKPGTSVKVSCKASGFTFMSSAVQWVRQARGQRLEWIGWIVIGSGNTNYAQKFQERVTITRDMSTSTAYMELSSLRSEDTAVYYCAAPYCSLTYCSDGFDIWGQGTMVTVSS
REGN10987, sequence (heavy, as listed by the source, chain 1 of 2): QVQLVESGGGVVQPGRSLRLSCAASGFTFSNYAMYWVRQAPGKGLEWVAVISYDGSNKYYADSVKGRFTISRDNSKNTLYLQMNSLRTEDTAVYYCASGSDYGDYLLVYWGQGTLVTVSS
REGN10987, sequence (light, as listed by the source, chain 2 of 2): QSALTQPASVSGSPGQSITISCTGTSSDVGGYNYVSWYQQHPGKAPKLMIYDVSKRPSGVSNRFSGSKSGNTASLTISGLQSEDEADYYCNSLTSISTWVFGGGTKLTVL
AZD8895, sequence (heavy, as listed by the source, chain 1 of 2): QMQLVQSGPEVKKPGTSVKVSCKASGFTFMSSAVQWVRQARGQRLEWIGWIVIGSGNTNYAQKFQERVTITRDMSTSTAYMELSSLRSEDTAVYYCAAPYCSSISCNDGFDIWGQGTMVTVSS
MW05, sequence (light, as listed by the source): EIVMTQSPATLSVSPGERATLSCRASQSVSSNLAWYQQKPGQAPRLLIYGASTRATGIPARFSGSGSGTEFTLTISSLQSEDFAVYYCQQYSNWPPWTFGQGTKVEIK
REGN10933, sequence (heavy, as listed by the source, chain 1 of 2): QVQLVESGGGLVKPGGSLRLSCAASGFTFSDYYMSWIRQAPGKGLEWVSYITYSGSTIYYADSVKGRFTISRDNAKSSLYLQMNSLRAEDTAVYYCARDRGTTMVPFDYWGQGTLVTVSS
REGN10933, sequence (light, as listed by the source, chain 2 of 2): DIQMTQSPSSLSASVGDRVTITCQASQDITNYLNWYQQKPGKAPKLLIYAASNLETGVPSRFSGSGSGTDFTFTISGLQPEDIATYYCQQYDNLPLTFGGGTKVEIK

In the case of “SARS-CoV-2 spike RBD protein (Sino Biological, 40592-V08H) (from UniProt P0DTC2) (domain or fragment)”, the Kd (usually the concentration at which binding is half-saturated) in assay [1] is 7.33 nM; in assay [2] it was 1.42 nM; in assay [3] it was 5.92 nM; in assay [4], 1.89 nM; in assay [5], 6.7 nM; in assay [6], 6.71 nM. Besides, the Kd in assay [7] was found to be 5.17 nM; in assay [8], 4.81 nM.

Values taken from publication PMC12847411.
